Assay results as given in PMC6111841.
Where “and” joins values, the source holds several entries; their conditions need not be identical. Equal values may be shown once.

What was measured:
[1] = target: HelD (Bacillus subtilis) (UniProt O32215); test: SEC; Superdex 200 Increase 10/300 GL, Buffer A (20 mM HEPES pH 7.5, 150 mM NaCl), 500 uL purified protein, 0.5 mL/min, 4 °C
[2] = target: HelD (Bacillus subtilis) (UniProt O32215); test: AUC; sedimentation velocity, HelD 5 uM in Buffer A (20 mM HEPES pH 7.5, 150 mM NaCl), 40,000 rpm, 4 °C, c(s) model in SEDFIT

Sequence of HelD (O32215 whole entry): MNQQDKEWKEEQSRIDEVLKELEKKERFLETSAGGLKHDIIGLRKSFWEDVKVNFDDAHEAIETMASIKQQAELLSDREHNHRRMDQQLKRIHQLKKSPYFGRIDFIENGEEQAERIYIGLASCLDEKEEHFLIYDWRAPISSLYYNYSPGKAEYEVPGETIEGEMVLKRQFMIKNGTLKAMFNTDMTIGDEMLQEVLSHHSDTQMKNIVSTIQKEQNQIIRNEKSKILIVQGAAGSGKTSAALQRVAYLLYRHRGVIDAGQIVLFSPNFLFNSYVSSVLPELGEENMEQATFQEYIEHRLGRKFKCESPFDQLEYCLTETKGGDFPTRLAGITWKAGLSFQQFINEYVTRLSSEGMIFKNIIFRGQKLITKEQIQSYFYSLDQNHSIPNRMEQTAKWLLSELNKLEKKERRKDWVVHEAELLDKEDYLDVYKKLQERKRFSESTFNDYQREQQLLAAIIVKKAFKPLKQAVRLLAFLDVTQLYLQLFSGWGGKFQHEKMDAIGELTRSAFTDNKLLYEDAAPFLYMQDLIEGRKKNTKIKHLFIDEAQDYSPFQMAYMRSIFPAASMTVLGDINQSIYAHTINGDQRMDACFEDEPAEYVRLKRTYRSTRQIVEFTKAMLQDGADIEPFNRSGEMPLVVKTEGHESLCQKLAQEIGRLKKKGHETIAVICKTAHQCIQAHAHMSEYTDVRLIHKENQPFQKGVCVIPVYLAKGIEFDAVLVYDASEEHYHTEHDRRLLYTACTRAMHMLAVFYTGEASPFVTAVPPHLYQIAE

stoichiometry N [1]: 2 and 3
population of higher order oligomers [2]: 20%
Substance: HelD (from UniProt O32215 1-774) (natural protein)
